Measured values: patent US20240392262A1, “TRANSPOSASE AND USES THEREOF” (Poseida Therapeutics, Inc., published 2024)
Where a chain is given by its changes, count along the chain named.

B1: PAH1 target (dsDNA)
DNA 1: TGAGATGATGTAACATCTATTCCATTAATTTCATTAACTTGCTTACAAGAGA
DNA 2: TCTCTTGTAAGCAAGTTAATGAAATTAATGGAATAGATGTTACATCATCTCA
B2: GFP1R 13 bp 5'A (dsDNA)
DNA 1: AGCAGATGAACGCAATCTCACGGCTTAACTACTGACCTGAAGTTCATCTGCT
DNA 2: AGCAGATGAACTTCAGGTCAGTAGTTAAGCCGTGAGATTGCGTTCATCTGCT
B3: GFP1R 13 bp 5'C (dsDNA)
DNA 1: B2 DNA 1 with A1C, T52G
DNA 2: B2 DNA 2 with A1C, T52G

Columns and labels:
PAH1 Left TAL-PBx = target: T1, PAH1 Left TAL-PBx (synthetic construct); assay: cell_activity; left only; conditions: tags: 3xFlag, SV40 NLS
T1 chain: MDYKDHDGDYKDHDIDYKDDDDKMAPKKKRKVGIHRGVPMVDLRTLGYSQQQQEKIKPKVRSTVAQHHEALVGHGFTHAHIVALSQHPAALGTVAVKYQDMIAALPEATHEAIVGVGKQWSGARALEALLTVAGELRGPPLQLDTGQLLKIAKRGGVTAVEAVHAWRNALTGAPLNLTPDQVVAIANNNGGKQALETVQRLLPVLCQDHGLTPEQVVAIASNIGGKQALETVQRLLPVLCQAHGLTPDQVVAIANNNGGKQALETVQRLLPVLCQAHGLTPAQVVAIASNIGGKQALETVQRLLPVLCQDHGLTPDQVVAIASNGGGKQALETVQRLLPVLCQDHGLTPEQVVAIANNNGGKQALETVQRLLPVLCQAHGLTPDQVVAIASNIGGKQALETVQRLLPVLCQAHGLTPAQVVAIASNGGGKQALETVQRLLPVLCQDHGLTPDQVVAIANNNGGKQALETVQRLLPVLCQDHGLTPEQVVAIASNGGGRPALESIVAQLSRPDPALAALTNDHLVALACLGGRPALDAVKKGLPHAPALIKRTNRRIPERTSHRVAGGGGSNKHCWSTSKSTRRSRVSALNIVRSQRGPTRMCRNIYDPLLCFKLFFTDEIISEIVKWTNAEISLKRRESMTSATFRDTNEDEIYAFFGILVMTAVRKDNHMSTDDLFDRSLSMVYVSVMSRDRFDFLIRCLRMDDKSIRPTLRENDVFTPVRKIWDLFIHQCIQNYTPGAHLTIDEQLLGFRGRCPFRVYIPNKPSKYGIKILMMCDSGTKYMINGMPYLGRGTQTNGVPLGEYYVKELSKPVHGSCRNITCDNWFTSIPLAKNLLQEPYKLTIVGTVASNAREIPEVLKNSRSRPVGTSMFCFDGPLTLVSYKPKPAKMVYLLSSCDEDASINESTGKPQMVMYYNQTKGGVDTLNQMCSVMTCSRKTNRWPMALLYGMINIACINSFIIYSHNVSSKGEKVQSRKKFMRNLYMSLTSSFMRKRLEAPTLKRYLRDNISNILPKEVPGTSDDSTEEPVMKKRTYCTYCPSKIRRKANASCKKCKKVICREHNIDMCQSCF

PAH1 Right TAL-PBx = target: T2, PAH1 Right TAL-PBx (synthetic construct); assay: cell_activity; right only; conditions: tags: 3xFlag, SV40 NLS
T2 chain: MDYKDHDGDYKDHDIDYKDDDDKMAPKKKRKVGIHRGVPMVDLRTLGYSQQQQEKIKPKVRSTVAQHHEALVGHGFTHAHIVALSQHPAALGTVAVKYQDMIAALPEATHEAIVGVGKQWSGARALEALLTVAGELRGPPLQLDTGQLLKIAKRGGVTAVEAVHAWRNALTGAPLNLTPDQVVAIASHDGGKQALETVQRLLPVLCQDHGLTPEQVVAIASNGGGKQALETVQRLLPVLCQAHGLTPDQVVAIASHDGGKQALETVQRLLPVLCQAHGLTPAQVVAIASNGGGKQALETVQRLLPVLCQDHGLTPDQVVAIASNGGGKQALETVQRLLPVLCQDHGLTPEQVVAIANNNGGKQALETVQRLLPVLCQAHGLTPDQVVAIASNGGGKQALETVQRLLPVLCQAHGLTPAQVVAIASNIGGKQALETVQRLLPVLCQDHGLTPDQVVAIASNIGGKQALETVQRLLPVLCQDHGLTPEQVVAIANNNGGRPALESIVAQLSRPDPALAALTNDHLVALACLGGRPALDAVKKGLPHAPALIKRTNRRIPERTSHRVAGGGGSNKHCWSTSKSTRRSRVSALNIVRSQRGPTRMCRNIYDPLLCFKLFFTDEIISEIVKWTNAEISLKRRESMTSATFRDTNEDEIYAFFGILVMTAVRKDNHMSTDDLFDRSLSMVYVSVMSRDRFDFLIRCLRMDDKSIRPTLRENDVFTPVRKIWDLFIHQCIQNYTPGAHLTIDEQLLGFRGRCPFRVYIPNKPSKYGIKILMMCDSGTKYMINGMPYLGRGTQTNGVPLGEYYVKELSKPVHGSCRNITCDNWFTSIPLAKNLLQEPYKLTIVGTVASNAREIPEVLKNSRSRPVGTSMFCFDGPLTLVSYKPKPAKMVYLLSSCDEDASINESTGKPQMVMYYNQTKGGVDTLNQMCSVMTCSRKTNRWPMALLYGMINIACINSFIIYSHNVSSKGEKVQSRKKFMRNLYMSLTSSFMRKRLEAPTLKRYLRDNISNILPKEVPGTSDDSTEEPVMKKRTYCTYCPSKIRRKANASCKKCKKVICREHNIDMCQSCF

GFP1 Right TAL-PBx = target: T3, GFP1 Right TAL-PBx (synthetic construct); assay: cell_activity; conditions: tags: 3xFlag, SV40 NLS; chain copies: 2
T3 chain: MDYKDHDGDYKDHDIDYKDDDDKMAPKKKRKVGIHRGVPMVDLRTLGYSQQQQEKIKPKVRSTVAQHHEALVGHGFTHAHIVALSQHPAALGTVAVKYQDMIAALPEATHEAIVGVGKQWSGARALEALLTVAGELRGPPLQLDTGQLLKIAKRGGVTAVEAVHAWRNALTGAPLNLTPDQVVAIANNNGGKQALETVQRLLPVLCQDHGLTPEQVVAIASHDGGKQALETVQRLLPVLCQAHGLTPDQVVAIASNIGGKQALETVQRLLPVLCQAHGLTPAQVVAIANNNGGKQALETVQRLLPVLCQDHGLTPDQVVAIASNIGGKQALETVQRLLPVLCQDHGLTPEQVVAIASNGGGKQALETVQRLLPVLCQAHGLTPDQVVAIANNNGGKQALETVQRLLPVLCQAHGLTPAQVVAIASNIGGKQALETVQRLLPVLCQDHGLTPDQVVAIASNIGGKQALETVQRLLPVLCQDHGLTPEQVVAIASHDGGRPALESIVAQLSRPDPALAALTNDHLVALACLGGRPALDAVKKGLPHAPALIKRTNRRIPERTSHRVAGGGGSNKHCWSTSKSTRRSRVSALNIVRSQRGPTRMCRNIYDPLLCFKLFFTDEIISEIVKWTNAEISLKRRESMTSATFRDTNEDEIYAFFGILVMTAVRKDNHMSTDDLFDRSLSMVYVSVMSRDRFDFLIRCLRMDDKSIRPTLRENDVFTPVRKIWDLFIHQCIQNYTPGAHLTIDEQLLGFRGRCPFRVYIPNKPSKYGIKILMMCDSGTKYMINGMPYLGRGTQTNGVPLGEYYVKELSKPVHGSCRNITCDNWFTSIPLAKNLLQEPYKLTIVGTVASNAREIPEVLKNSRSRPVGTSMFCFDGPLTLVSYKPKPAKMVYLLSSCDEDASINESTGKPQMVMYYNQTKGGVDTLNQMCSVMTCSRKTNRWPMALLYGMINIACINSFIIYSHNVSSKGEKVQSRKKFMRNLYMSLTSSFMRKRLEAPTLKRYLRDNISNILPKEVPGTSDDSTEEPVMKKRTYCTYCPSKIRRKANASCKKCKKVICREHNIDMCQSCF

GFP1 Right NT-G TAL-PBx = target: T4, GFP1 Right NT-G TAL-PBx (synthetic construct); assay: cell_activity; conditions: tags: 3xFlag, SV40 NLS; chain copies: 2
T4 chain: T3 chain with Q119S, W120R

[1] = target: T5, GFP1 Right NT-betaN TAL-PBx (synthetic construct); assay: cell_activity; conditions: tags: 3xFlag, SV40 NLS; chain copies: 2
T5 chain: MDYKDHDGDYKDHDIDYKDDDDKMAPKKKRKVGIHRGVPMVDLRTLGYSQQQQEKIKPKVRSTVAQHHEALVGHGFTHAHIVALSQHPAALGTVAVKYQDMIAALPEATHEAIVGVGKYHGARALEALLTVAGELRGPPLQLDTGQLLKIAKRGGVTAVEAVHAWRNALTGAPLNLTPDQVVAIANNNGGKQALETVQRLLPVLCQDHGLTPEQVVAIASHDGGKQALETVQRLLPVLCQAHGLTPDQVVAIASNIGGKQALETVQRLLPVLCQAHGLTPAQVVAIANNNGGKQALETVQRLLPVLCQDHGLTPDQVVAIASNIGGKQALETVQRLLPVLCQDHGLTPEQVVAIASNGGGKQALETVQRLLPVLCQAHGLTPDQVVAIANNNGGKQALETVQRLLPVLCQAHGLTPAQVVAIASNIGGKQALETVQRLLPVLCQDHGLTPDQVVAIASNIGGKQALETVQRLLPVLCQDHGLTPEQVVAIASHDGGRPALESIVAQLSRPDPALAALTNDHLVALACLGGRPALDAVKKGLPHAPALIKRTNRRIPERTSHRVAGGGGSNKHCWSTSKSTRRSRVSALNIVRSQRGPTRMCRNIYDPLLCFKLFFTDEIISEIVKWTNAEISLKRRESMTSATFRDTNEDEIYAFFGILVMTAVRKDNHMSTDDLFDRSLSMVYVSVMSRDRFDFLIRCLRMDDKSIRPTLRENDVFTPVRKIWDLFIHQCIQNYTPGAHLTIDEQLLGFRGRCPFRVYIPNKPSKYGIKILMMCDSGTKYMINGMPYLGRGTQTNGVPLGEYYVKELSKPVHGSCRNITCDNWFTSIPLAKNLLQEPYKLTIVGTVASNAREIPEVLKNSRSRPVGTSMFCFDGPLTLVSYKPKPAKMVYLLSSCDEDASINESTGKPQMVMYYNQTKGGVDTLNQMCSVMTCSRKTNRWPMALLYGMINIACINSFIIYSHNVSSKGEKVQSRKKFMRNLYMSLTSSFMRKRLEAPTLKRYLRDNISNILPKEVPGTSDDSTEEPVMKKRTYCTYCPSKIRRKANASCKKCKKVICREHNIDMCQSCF

Row | Binder | activity (PAH1 Left TAL-PBx) [% GFP+] | activity (PAH1 Right TAL-PBx) [% GFP+] | activity (GFP1 Right TAL-PBx) [% GFP+] | activity (GFP1 Right NT-G TAL-PBx) [% GFP+] | activity [1] [% GFP+]
1 | B1 | 5.7 | 4.2 |  |  | 
2 | B2 |  |  | 11.3 | 21.5 | 23.7
3 | B3 |  |  | 11.5 | 18.5 | 22.3
